This assay has as its target mouse c-Abl kinase domain (residues 232-502) (mouse) (UniProt P00520).

mouse c-Abl kinase domain (residues 232-502) (mouse), sequence (P00520 232-502): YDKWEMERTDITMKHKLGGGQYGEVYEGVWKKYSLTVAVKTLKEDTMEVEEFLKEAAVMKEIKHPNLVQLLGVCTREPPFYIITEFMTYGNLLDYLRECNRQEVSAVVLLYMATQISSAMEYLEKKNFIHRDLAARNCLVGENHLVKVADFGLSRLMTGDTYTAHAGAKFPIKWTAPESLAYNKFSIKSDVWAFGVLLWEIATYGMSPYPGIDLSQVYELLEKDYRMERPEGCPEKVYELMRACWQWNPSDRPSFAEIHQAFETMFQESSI

In the case of Ac-GAPEVIYATPGAKKKG-NH2 [AblTide (2014) peptide Ac-…-NH2], the KM (μM) of phosphorylation, Michaelis-Menten analysis, ADP-Quest assay worked out at 35 µM.
